Measurements from patent US20220056112A1 (YUROGEN BIOSYSTEMS, published 2022).

Biological target: T1, nucleocapsid protein of SARS-CoV-2 (SARS-CoV-2, UniProt P0DTC9 1-419)

Binder | EC50 (read off the curve)
rabbit monoclonal antibody 1G7 against the SARS-CoV-2 nucleocapsid protein (antibody, V domains shown) VH: QQQVVESGGGLVKPGASLTLTCEASGFSFSSGYDMCWVRQAPGKGLEWIACIYPGSSGNTYYASWAKGRFTISKTSSTTVTLQMTSLTAADTATYFCARTYASSSGDYIPYFFNLWGPGTLVTVSS VL: DIVMTQTPASVEAAVGGTVTIKCQASENIYSGLAWYQQKPGQPPKLLIYDASDLASGVPSRFKGSGSGTEYTLTISDLECADAATYYCQNYYYSSRGFNTFGGGTEVVVKG | ~10 ng/mL

Biological target: T1, nucleocapsid protein of SARS-CoV-2
Remark: another data set of the same source

Binder | Kd | koff | kon
rabbit monoclonal antibody 6H7 against the SARS-CoV-2 nucleocapsid protein (antibody, V domains shown) VH: QQQLEESGGGLVQPGGSLTLSCKASGFNVNSDCYMCWVRQAPGKGLEWIGCIDTVSGSTYYATWAKGRFTISKTSSTTVTLQMTSLTAADTATYFCARDFLYNVNNAGDIMDLWGPGTLVTVSL VL: AQVLTQTPSSVSAAVGGTVTINCQSSYNVYNNNYLAWYQQKPGQPPKLLIYTTSTLASGVPSRFSGSGSGTQFTLTISDLECDDAAIYYCQGYYRGPVNDFGGGTEVVVEG | 0.674 nM | 0.000238 s⁻¹ | 354000 M⁻¹ s⁻¹
rabbit monoclonal antibody 3A7 against the SARS-CoV-2 nucleocapsid protein (antibody, V domains shown) VH: QEQLEESGGGLVQPEGSLTLTCTASGFSLSDSAYMCWVRQAPGKGLEWIACIDAGVSGSTYYASWVNGRFTISKTSSTTVTLQMTSLTVADTATYFCARDFLYTPNNAGDIMDLWGPGTLVTVSL VL: AQVLTQTPSSVSAAVGGTVTINCQSSHTVYSNNYLSWYQQKPGQPPKLLIYSASSLASGVPSRFKGSGSGTQFTLTISDLECDDAAIYYCHGYWRGPVNDFGGGTEVVVEG | 1.22 nM | 0.000272 s⁻¹ | 224000 M⁻¹ s⁻¹
rabbit monoclonal antibody 5B12 against the SARS-CoV-2 nucleocapsid protein (antibody, V domains shown) VH: QSLEESGGDLVQPEGTLTLTCTASGFSFFYDYYMCWVRQAPGKGLEWIGCIYGASGDTYYASWAKGRFTISKTSSTTVTLRMTSLTAADTATYFCARDVDTGSGIDFELWGPGTLVTVSS VL: AYDMTQTPASVEVAVGGTVTIKCQASQSIGSYLSWYQQKPGQPPKLLIYSTSTLASGVPSRFKGSGSGTQFTLTISGVECADAATYYCQQGDTNHNIDNIFGGGTEVVVEG | 1.89 nM | 8.29e-05 s⁻¹ | 44000 M⁻¹ s⁻¹
rabbit monoclonal antibody 1G7 against the SARS-CoV-2 nucleocapsid protein (antibody, V domains shown) VH: QQQVVESGGGLVKPGASLTLTCEASGFSFSSGYDMCWVRQAPGKGLEWIACIYPGSSGNTYYASWAKGRFTISKTSSTTVTLQMTSLTAADTATYFCARTYASSSGDYIPYFFNLWGPGTLVTVSS VL: DIVMTQTPASVEAAVGGTVTIKCQASENIYSGLAWYQQKPGQPPKLLIYDASDLASGVPSRFKGSGSGTEYTLTISDLECADAATYYCQNYYYSSRGFNTFGGGTEVVVKG | 8.14 nM | 9.87e-05 s⁻¹ | 12100 M⁻¹ s⁻¹
rabbit monoclonal antibody 5B4 against the SARS-CoV-2 nucleocapsid protein (antibody, V domains shown) VH: QSLEESGGGLVKPGGTLTLTCTVSGLSLSTNAPNWVRQAPGKGLEWIGTIFIDDEDTYYASWAKGRFTISKTSSTTITLKMTSLTAADTATYFCARNSDLWDPGTLVVVSS VL: AQVLTQTPSPVSAAVGGTVTINCQASQSVYNNNYLSWFQQKPGQPPKLLIYKASTLASGVSSRFKGSGSGTQFTLTISDVQCDDAATYFCLGSYDCRSANCIVFGGGTEVVVKG | 0.717 nM | 0.000261 s⁻¹ | 364000 M⁻¹ s⁻¹
rabbit monoclonal antibody 11B12 against the SARS-CoV-2 nucleocapsid protein (antibody, V domains shown) VH: QQQLEESGGGLVKPGGTLTLTCTVSGLSLSSNTLNWVRQAPGKGLEWIGTIFIDDEDTYYASWAKGRFTISKTSSTTITLKMTSLTAADTATYFCARSSDLWDPGTLVVVSS VL: AQVLTQTPSSVSAAVGGTVTINCQASQSVYKNNYLSWFQQKPGQPPKLLIYQASKLASGVSSRFKGSGSGTQFTLTISDVQCDDAATYFCLGSYDCRSANCIVFGGGTEVVVKG | 0.0565 nM | 2.63e-05 s⁻¹ | 465000 M⁻¹ s⁻¹
rabbit monoclonal antibody 1F8 against the SARS-CoV-2 nucleocapsid protein (antibody, V domains shown) VH: QEHLEESGGGLVKPGASLTLTCTASGFSLSNNYWICWVRQAPGKGLEWIACIYTGRDYTYYTSWAKGRFTISKTSSTTVTLQLNSLTAADTATYFCARNNTDYGDYWDLWGPGTLVTVSS VL: AQVLTQTASPVSVAVGDTVTINCQASQSVYKNNYLAWYQLKPGQPPKLLIYWGTKLPSGVPSRFKGSGSGTHFTLTISDVQCDDAATYYCLGSYDCTIAECNVFGGGTEVVVEG | 2.29 nM | 0.000206 s⁻¹ | 90200 M⁻¹ s⁻¹
